Laboratory results published in paper PMC11678472, “Comparative Analysis of Symmetry Parameters in the E2 Inner Core of the Pyruvate Dehydrogenase Complex” (International Journal of Molecular Sciences, 2024).

Target: the molecule itself
Test: cryo-EM structure; single-particle analysis of purified truncated E2 (4 uL of 100 nM) on a holey carbon grid, vitrified at 4 °C and 100% humidity; 69,946 particles; reconstructed with C1, C5, D2, T and I symmetry (4.93 to 4.20 Å)

B1: truncated dihydrolipoyl acetyltransferase (E2) of the pyruvate dehydrogenase complex of B. stearothermophilus, amino acids 185 to 425 (catalytic core domain … (domain or fragment, Bacillus stearothermophilus, UniProt P11961 185-425, looked up)
chain: AAAKPATTEGEFPETREKMSGIRRAIAKAMVHSKHTAPHVTLMDEADVTKLVAHRKKFKAIAAEKGIKLTFLPYVVKALVSALREYPVLNTSIDDETEEIIQKHYYNIGIAADTDRGLLVPVIKHADRKPIFALAQEINELAEKARDGKLTPGEMKGASCTITNIGSAGGQWFTPVINHPEVAILGIGRIAEKPIVRDGEIVAAPMLALSLSFDHRMIDGATAQKALNHIKRLLSDPELLL
notes: dihydrolipoyl acetyltransferase (E2) of the pyruvate dehydrogenase complex, Bacillus stearothermophilus, UniProt P11961; Forms an icosahedral inner core built of trimeric units; It says only that I symmetry has 60 elements; The monomer runs at about 32 kDa on SDS-PAGE, more than residues 185-425 alone, so tags are probably present; also called truncated E2; E2 inner core complex; source: E. coli …
  stoichiometry N: 3
